Test results reported in the supplement of paper PMC10065799, “High-throughput profiling of sequence recognition by tyrosine kinases and SH2 domains using bacterial peptide display” (eLife, 2023).

Target: FGFR3 (UniProt P22607)
Test: phosphorylation enrichment, bacterial display (enrichment ratio); higher = better substrate or ligand; peptides without Tyr show the background
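Also: 11-residue human phosphosite peptides and single-mutation variants displayed on the E. coli surface, counted by deep sequencing, each peptide's frequency after selection divided by its frequency in the unselected input library; frequency after pTyr selection over input frequency; kinase dosed for 20-30% of maximal phosphorylation in three min.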

FGFR3, sequence (P22607 whole entry, looked up): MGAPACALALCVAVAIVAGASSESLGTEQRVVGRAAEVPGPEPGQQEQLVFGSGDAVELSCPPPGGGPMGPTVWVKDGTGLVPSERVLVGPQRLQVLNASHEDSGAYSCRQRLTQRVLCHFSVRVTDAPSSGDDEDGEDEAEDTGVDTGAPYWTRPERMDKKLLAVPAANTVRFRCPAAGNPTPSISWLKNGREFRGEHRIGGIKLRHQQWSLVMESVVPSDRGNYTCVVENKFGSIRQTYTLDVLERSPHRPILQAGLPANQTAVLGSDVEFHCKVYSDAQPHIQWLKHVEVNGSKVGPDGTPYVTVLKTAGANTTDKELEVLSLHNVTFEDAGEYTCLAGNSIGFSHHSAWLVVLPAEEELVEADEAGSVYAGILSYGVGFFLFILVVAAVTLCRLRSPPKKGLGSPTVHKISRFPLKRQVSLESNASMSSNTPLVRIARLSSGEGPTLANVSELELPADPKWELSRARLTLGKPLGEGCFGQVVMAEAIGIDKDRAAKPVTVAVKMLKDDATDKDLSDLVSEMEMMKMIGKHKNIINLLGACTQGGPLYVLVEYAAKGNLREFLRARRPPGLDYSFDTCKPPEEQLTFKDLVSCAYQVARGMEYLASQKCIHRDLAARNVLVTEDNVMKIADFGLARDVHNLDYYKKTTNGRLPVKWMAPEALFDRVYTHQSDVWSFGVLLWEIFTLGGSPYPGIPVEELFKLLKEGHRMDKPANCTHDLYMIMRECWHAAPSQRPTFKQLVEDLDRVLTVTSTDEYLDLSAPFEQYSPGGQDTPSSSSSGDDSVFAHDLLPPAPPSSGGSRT

Going from LTFDEYRNISQ [ANXA3_Y216] to PEVSGYCHYAD [TG_Y234_C237Y], the phosphorylation enrichment falls from 1.49 to 0.714.

Going from ELAVNYQEQAS [SLC9A9_Y591_I589V] to GDPTEYFITAI [IGSF22_Y501_S503I_YF], the phosphorylation enrichment rises from 0.883 to 1.11.

Going from QNTGDDFDLFG [PTPN11_Y62_Y62D_YF] to RLAKTYETTLE [ALB_Y377], the phosphorylation enrichment falls from 1.1 to 0.895.

Going from DDFDLYGGEKF [PTPN11_Y66_Y62D_YF] to SAGSSYSISVI [PAX5_Y179_G183V], the phosphorylation enrichment rises from 0.727 to 0.752.

First: FLNSIYKCRDE [ROS1_Y2227_S2229C]
Second: ARLEFYENEKK [IRS1_Y47_YF]
The phosphorylation enrichment of the first is higher: 0.662 for the first, 0.604 for the second.

Going from FRVAGYKTQGG [TIA1_Y383_E384K_YF] to FCVVRYCWLRR [MPZ_Y181_Y177C], the phosphorylation enrichment rises from 0.468 to 0.709.

Going from TDHLQYFDSNK [ARAP1_Y359_R358Q] to AASHRYDLGGL [QPRT_Y162], the phosphorylation enrichment falls from 0.84 to 0.4.

Going from TISPYYCQSLF [CRYAA_Y48_R49C] to CTTIHYDFMCN [TP53_Y234_N235D_YF], the phosphorylation enrichment falls from 4.43 to 0.764.

Compared with LPEENYQVLRF [ARHGAP1_Y365], VEEDTYTMPST [PTK2_Y407_D402V] is lower in phosphorylation enrichment: 2.17 for the first, 0.984 for the second.

Compared with ACEVLYNIVFM [NCF2_Y125_A128V], TNFPLYLRSLE [MTM1_Y71_R69P_YF] is lower in phosphorylation enrichment: 2.03 for the first, 0.544 for the second.

Compared with VKPHRYRPGTV [H3-5_Y41], YGGLRYGYGGL [KRTAP20-2_Y13_V17G] is higher in phosphorylation enrichment: 0.346 for the first, 0.536 for the second.

Going from DGYIDYAEFAK [MCFD2_Y138] to VTAALYGRLYE [BTD_Y536], the phosphorylation enrichment falls from 1 to 0.724.

Going from SHSMKYFDTAV [HLA-C_Y31_R30K] to EKKKYYDAKIE [CASP5_Y104_T106A], the phosphorylation enrichment rises from 0.432 to 0.781.

Compared with HFVDEYDPTME [KRAS_Y32_I36M], KVGNEYVNKGQ [MYH7_Y410_T412N] is lower in phosphorylation enrichment: 0.633 for the first, 0.391 for the second.

Going from RREWYYEVIIA [BACE1_Y260_V265A] to IGEVVYQRAAM [GRIN2A_Y502_V506A], the phosphorylation enrichment falls from 2.9 to 0.394.

First: DLDLTYIYPNI [PTEN_Y27]
Second: TPGPNYRPGYN [USH2A_Y463]
The phosphorylation enrichment of the first is higher: 2.61 for the first, 0.676 for the second.

Work on NQSVRYDSSLK [ABCC8_Y1353_L1349Q] yielded a phosphorylation enrichment of 0.456.

Target: Jak2 (UniProt O60674)
Sequence (O60674 whole entry, looked up): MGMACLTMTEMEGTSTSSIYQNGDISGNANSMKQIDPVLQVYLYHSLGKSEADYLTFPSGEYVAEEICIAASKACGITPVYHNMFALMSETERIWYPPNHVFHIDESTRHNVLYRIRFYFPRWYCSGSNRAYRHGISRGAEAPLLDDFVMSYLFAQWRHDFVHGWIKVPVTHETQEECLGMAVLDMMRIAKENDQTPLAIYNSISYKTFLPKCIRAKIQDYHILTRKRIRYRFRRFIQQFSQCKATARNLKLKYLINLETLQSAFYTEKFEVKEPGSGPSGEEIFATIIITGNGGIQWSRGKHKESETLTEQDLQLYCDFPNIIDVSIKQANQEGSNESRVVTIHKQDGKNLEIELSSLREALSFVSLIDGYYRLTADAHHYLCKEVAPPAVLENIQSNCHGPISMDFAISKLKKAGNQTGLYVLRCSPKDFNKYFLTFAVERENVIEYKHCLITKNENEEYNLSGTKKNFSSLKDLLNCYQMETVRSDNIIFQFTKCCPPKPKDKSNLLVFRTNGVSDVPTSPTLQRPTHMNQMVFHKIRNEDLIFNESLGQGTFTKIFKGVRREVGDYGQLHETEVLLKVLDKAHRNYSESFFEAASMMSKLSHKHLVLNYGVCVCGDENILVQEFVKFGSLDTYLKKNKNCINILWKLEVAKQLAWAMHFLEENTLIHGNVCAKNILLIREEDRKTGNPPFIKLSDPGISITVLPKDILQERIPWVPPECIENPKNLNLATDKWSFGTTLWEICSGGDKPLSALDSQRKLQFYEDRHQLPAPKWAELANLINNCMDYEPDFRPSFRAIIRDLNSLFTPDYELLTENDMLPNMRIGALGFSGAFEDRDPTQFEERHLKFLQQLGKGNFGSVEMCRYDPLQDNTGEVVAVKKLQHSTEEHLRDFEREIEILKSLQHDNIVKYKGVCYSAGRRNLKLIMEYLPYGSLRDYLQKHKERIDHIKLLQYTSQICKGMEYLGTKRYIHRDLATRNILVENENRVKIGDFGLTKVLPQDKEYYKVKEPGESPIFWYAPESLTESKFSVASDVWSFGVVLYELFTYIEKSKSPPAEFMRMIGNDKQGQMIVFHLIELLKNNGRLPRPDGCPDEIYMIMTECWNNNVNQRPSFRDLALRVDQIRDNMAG
Test: as above

Going from LTFDEYRNISQ [ANXA3_Y216] to PEVSGYCHYAD [TG_Y234_C237Y], the phosphorylation enrichment falls from 1.58 to 1.04.

Going from ELAVNYQEQAS [SLC9A9_Y591_I589V] to GDPTEYFITAI [IGSF22_Y501_S503I_YF], the phosphorylation enrichment rises from 0.829 to 1.31.

Compared with QNTGDDFDLFG [PTPN11_Y62_Y62D_YF], RLAKTYETTLE [ALB_Y377] is lower in phosphorylation enrichment: 1.6 for the first, 1.09 for the second.

Compared with DDFDLYGGEKF [PTPN11_Y66_Y62D_YF], SAGSSYSISVI [PAX5_Y179_G183V] is lower in phosphorylation enrichment: 1.2 for the first, 0.835 for the second.

Compared with FLNSIYKCRDE [ROS1_Y2227_S2229C], ARLEFYENEKK [IRS1_Y47_YF] is lower in phosphorylation enrichment: 1.24 for the first, 0.887 for the second.

Going from FRVAGYKTQGG [TIA1_Y383_E384K_YF] to FCVVRYCWLRR [MPZ_Y181_Y177C], the phosphorylation enrichment rises from 0.558 to 0.586.

Going from TDHLQYFDSNK [ARAP1_Y359_R358Q] to AASHRYDLGGL [QPRT_Y162], the phosphorylation enrichment falls from 0.914 to 0.521.

Compared with TISPYYCQSLF [CRYAA_Y48_R49C], CTTIHYDFMCN [TP53_Y234_N235D_YF] is lower in phosphorylation enrichment: 1.26 for the first, 0.873 for the second.

Compared with LPEENYQVLRF [ARHGAP1_Y365], VEEDTYTMPST [PTK2_Y407_D402V] is lower in phosphorylation enrichment: 1.44 for the first, 1.12 for the second.

Going from ACEVLYNIVFM [NCF2_Y125_A128V] to TNFPLYLRSLE [MTM1_Y71_R69P_YF], the phosphorylation enrichment falls from 1.59 to 1.13.

First: VKPHRYRPGTV [H3-5_Y41]
Second: YGGLRYGYGGL [KRTAP20-2_Y13_V17G]
The phosphorylation enrichment of the first is lower: 0.494 for the first, 0.671 for the second.

First: DGYIDYAEFAK [MCFD2_Y138]
Second: VTAALYGRLYE [BTD_Y536]
The phosphorylation enrichment of the first is higher: 0.917 for the first, 0.904 for the second.

Going from SHSMKYFDTAV [HLA-C_Y31_R30K] to EKKKYYDAKIE [CASP5_Y104_T106A], the phosphorylation enrichment rises from 0.785 to 0.912.

First: HFVDEYDPTME [KRAS_Y32_I36M]
Second: KVGNEYVNKGQ [MYH7_Y410_T412N]
The phosphorylation enrichment of the first is higher: 1.33 for the first, 0.424 for the second.

Compared with RREWYYEVIIA [BACE1_Y260_V265A], IGEVVYQRAAM [GRIN2A_Y502_V506A] is lower in phosphorylation enrichment: 1.26 for the first, 0.595 for the second.

First: DLDLTYIYPNI [PTEN_Y27]
Second: TPGPNYRPGYN [USH2A_Y463]
The phosphorylation enrichment of the first is higher: 1.57 for the first, 0.597 for the second.

NQSVRYDSSLK [ABCC8_Y1353_L1349Q] showed a phosphorylation enrichment of 0.556.
